These results are taken from patent US20240142454A1 (UNIVERSITY OF KENTUCKY RESEARCH FOUNDATION, published 2024).

The chains are these.
B1: mouse monoclonal antibody 26A6 (antibody, mouse IgG2b, kappa, V domains shown)
VH: EVQLQQSGPVLVKPGASVKMSCKASGYTFTDFYLNWVKQSHGKTLEWIGVINPYNGITRYNQKFGGTATLTVDKSSSTAYMELNSLTSEDSAVYYCSRGGKTYYFDYWGQGTTLTVSP
VL: DVVMTQSPLSLPVSLGDQASISCRSSQSLVHSNGNTYLHWYLQKPGQSPKLLIYKVSNRFSGVPDRFSGSGSGTDFTLKINRVEAEDLGVYFCSQSTHVPPVTFGGGTKLEIKR
notes: used as hybridoma supernatant or Protein G-purified; also called 26A6 mAb; hybridoma ATCC PTA-126751
B2: immunizing peptide CGGGESVLTLK (peptide)
peptide: CGGGESVLTLK
modifications: also: conjugated to KLH for immunization
notes: Conjugated to KLH for immunization; also called peptide antigen; peptide ESVLTLK424

The target of assay [1] is B2. As to the kind of experiment: ELISA on the immunizing peptide. On the procedure:
These mice were selected for further boosting and fusion with a Sp2/0 myeloma partner. The resulting hybridomas were screened first in ELISA assays to the immunizing peptide and secondly in Western blot assays to the uncleaved and cleaved CN, to confirm that they selectively bound the cleaved CN. A positive clone was identified-26A6. This clone was developed/subcloned further and characterized as to isotype. 26A6 is an IgG2b with a kappa light chain.
ELISA assays were carried out at GenScript. The immunizing peptide itself was bound to plates at a concentration of 1 μg/ml, 100 μl per well and supernatants from the hybridomas were used to bind to the peptide. An anti-IgG-HRP conjugated secondary antibody was used to detect the primary 26A6 antibody.
A general note: An ELISA detects its analyte on a solid surface through an enzyme-linked reagent.

Assay [2] concerns the target B1. The assay can be described thus: competition in immunofluorescence of human brain sections. On the procedure:
Slides were baked in a 40° C. oven overnight, then deparaffinized using SafeClear (Fisher Scientific, Hampton, NH), and rehydrated through a series of alcohols and finally into PBS. Antigen retrieval was carried out in pressurized decloaking chamber (BioCare Medical, Concord, CA), according to manufacturer's directions using the Borg antigen retrieval solution (BioCare Medical, Concord, CA). Following antigen retrieval, slides were washed 3× in PBS. For sections designated for staining with the β-amyloid antibody downstream, the sections were treated with 70% formic acid for 5 mins, then washed. All sections were treated with 3% H₂O₂ in methanol to block endogenous […] activity. Slides were washed in PBS and sections were either stained for immunofluorescence or immunohistochemistry.
For immunofluorescence, sections were incubated in blocking solution (PBS with 3% bovine serum albumin, 5% goat serum, and 0.05% Triton X 100) for 30 minutes, and incubated overnight at room temperature in primary antibody in that same blocking solution. Primary antibodies used were: rabbit anti-GFAP (1:200; catalog #12389, Cell Signaling Technology, Danviers, MA) and mouse 26A6 hybridoma supernatants diluted 1:5 or 10 ug/ml of purified 26A6 antibody. Sometimes 75 μg/ml immunizing peptide was included with the 26A6 antibody as a negative control. […]

Where no end group is shown, it is not given here.

For B1, the binding result in assay [1] is recorded as “binds”.
Turning to B2, in assay [2], the binding result is listed as “binds”.
